This is an account of results in patent US20020182180A1.

For test [1], the target named is V3 loop-deleted (Δ297-329) HIV-1IIIB env glycoprotein expressed by vv-7ΔV3 (HIV-1 IIIB isolate) (UniProt P04578). The test is described as follows: cell-based or functional assay.
The target of test [2] is CD4 receptor on CD4+ cells (SupT-1 cells; IL-2-dependent CD4+ T lymphocytes) (UniProt P01730). Kind of test: cell-based or functional assay.

For “F105, human mAb directed against a discontinuous gp120 epitope overlapping the CD4 binding site (antibody)”, the ADCC specific lysis (51Cr release, E:T 50:1) in test [1] is below 4%.

Consider “V3 loop-deleted (Δ297-329) HIV-1IIIB env glycoprotein expressed by vv-7ΔV3 (from UniProt P04578 33-296; P04578 330-856)”, for which the activation-induced apoptosis of CD4+ T lymphocytes (fragmented DNA, PI, 72 hrs) in test [2] was below 7%.

Consider “full-length (wild-type) HIV-1IIIB env glycoprotein expressed by vv-WTP-2 (from UniProt P04578 33-856)”, for which, in test [2], the apoptotic cells (sub-G1 DNA content, PI staining) in infected SupT-1 cells, 16 hr is 20% and the syncytium formation in infected SupT-1 cells fell in the range of 80 to 90%.
